In article PMC12292245, “Probing the Active Site of Class 3 L-Asparaginase by Mutagenesis: Mutations of the Ser-Lys Tandems of ReAV” (Biomolecules, 2025):

B1: ReAV R47A mutant (Rhizobium etli Class 3, type V L-asparaginase) (enzyme)
chain: MTPSEDFVVTDRGGIVENSHRVHAAVVDAKGRLLYALGNPTRMTLAASAAKPAQALAILETEGVAGYGFDDADIALMCASHSSEDRHIARTRAMLSKIKAEEADLRCGGHPSLSEMVNRSWIKQDFIPTAVCSNCSGKHVGMLAGARAIGAGTDGYHLPDHPMQGRVKRTVAELCDLDAGDVEWGTDGCNLPTPAFPLDRLGRIYAKLASAADGSDAGEGQSTRCAALAHIFRAMARHPEMVAGEGRYCTMLMRAFDGALVGKLGADASYAIGVRASDATRQLGTDGALGISVKIEDGNLEMLYAVVTELLERLGIGSPDVRSQLASFHHPQRVNTMGVTTGGVSFPFKLRGSKSNVDDPRLAAVAR
notes: ReAV, inducible thermolabile type V L-asparaginase of Rhizobium etli; Homodimer; source: E. coli BL21-Gold (DE3), purified (HisTrap, TEV digestion, second HisTrap, Superdex 200)
B2: ReAV S48A mutant (Rhizobium etli Class 3, type V L-asparaginase) (enzyme)
chain: MTPSEDFVVTDRGGIVENSHRVHAAVVDAKGRLLYALGNPTRMTLARAAAKPAQALAILETEGVAGYGFDDADIALMCASHSSEDRHIARTRAMLSKIKAEEADLRCGGHPSLSEMVNRSWIKQDFIPTAVCSNCSGKHVGMLAGARAIGAGTDGYHLPDHPMQGRVKRTVAELCDLDAGDVEWGTDGCNLPTPAFPLDRLGRIYAKLASAADGSDAGEGQSTRCAALAHIFRAMARHPEMVAGEGRYCTMLMRAFDGALVGKLGADASYAIGVRASDATRQLGTDGALGISVKIEDGNLEMLYAVVTELLERLGIGSPDVRSQLASFHHPQRVNTMGVTTGGVSFPFKLRGSKSNVDDPRLAAVAR
notes: ReAV, inducible thermolabile type V L-asparaginase of Rhizobium etli; Homodimer; Zn2+ at occupancy 0.7 in the crystal; source: E. coli BL21-Gold (DE3), purified (HisTrap, TEV digestion, second HisTrap, Superdex 200)
B3: ReAV K51A mutant (in fact the double mutant K51A/H238Y; Rhizobium etli Class 3, type V L-asparaginase) (enzyme)
chain: MTPSEDFVVTDRGGIVENSHRVHAAVVDAKGRLLYALGNPTRMTLARSAAAPAQALAILETEGVAGYGFDDADIALMCASHSSEDRHIARTRAMLSKIKAEEADLRCGGHPSLSEMVNRSWIKQDFIPTAVCSNCSGKHVGMLAGARAIGAGTDGYHLPDHPMQGRVKRTVAELCDLDAGDVEWGTDGCNLPTPAFPLDRLGRIYAKLASAADGSDAGEGQSTRCAALAHIFRAMARYPEMVAGEGRYCTMLMRAFDGALVGKLGADASYAIGVRASDATRQLGTDGALGISVKIEDGNLEMLYAVVTELLERLGIGSPDVRSQLASFHHPQRVNTMGVTTGGVSFPFKLRGSKSNVDDPRLAAVAR
notes: ReAV, inducible thermolabile type V L-asparaginase of Rhizobium etli; the crystallised protein carries the unintended second mutation H238Y; Homodimer; Zn2+ at occupancy 0.5 in the crystal; source: E. coli BL21-Gold (DE3), purified (HisTrap, TEV digestion, second HisTrap, Superdex 200)
B4: ReAV K263A mutant (Rhizobium etli Class 3, type V L-asparaginase) (enzyme)
chain: MTPSEDFVVTDRGGIVENSHRVHAAVVDAKGRLLYALGNPTRMTLARSAAKPAQALAILETEGVAGYGFDDADIALMCASHSSEDRHIARTRAMLSKIKAEEADLRCGGHPSLSEMVNRSWIKQDFIPTAVCSNCSGKHVGMLAGARAIGAGTDGYHLPDHPMQGRVKRTVAELCDLDAGDVEWGTDGCNLPTPAFPLDRLGRIYAKLASAADGSDAGEGQSTRCAALAHIFRAMARHPEMVAGEGRYCTMLMRAFDGALVGALGADASYAIGVRASDATRQLGTDGALGISVKIEDGNLEMLYAVVTELLERLGIGSPDVRSQLASFHHPQRVNTMGVTTGGVSFPFKLRGSKSNVDDPRLAAVAR
modifications: Cys249 chemically modified, modeled as S-hydroxycysteine
notes: ReAV, inducible thermolabile type V L-asparaginase of Rhizobium etli; Homodimer; Zn2+ at occupancy 0.8 in the crystal; source: E. coli BL21-Gold (DE3), purified (HisTrap, TEV digestion, second HisTrap, Superdex 200)
B5: ReAV S80A mutant (Rhizobium etli Class 3, type V L-asparaginase) (enzyme)
chain: MTPSEDFVVTDRGGIVENSHRVHAAVVDAKGRLLYALGNPTRMTLARSAAKPAQALAILETEGVAGYGFDDADIALMCAAHSSEDRHIARTRAMLSKIKAEEADLRCGGHPSLSEMVNRSWIKQDFIPTAVCSNCSGKHVGMLAGARAIGAGTDGYHLPDHPMQGRVKRTVAELCDLDAGDVEWGTDGCNLPTPAFPLDRLGRIYAKLASAADGSDAGEGQSTRCAALAHIFRAMARHPEMVAGEGRYCTMLMRAFDGALVGKLGADASYAIGVRASDATRQLGTDGALGISVKIEDGNLEMLYAVVTELLERLGIGSPDVRSQLASFHHPQRVNTMGVTTGGVSFPFKLRGSKSNVDDPRLAAVAR
modifications: Cys249 most likely oxidized, modeled as cysteinesulfinic acid
notes: ReAV, inducible thermolabile type V L-asparaginase of Rhizobium etli; Homodimer; source: E. coli BL21-Gold (DE3), purified (HisTrap, TEV digestion, second HisTrap, Superdex 200); mostly in inclusion bodies, about 10 mg/L recovered from the cell lysate

Target: the molecule itself
Test: crystal structure; hanging-drop vapor diffusion at 19 °C, protein 15-21 mg/mL with 0.5-1% v/v DDM; data at 100 K; molecular replacement with WT ReAV PDB 7os5; dimers in the asymmetric unit

Binding result, binds:
B1
B2
B3
B4
B5
